Assay [1] addresses T1, recombinant human DLL4 (Cat# 1506-D4/CF, R&D Systems) (human, UniProt Q9NR61 27-529).
T1 construct: Bought protein; also called hDLL4; h DLL4
Nature of the assay: ELISA, hDLL4 coated 0.5 ng/ul, Fab 0.78 nM. The procedure: (§1) The plate was blocked by adding 1% BSA in Tris-buffered Saline Tween (TBST) and incubating for 1 hour at room temperature followed by washing 2 times with 150 μl TBST. A Fab antibody was serially diluted in 1% BSA in PBS. A 50 μl aliquot of each serial dilution was added, in triplicate, to each well and the plate was incubated for 1 hour at room temperature followed by washing 2 times with TBST. 50 μl of either goat anti-human kappa HRP conjugated secondary antibody (Cat # A7164-1 mL, Sigma-Aldrich) or goat anti-human lambda HRP conjugated secondary antibody (Cat # L1645-1 ml, Sigma-Aldrich), diluted 1:1000 in 1% BSA in PBS, was added to each well and the plate was incubated for 30 minutes at room temperature followed by washing 3 times with 200 μl TBST. Finally, 50 μl TMB one-component reagent (Cat # TMBW-1000-01, BioFax) was added and allowed to develop for 2 minutes at room temperature. The reaction was immediately halted by the addition of 50 μl 0.5M H₂SO₄ and the absorbance at 450 nm was measured using an ELISA plate reader.
(An ELISA detects its analyte on a solid surface through an enzyme-linked reagent.)

The target in assay [2] is T1, recombinant human DLL4 (Cat# …). Nature of the assay: ELISA, hDLL4 coated 0.5 ng/ul, Fab 1.56 nM. The procedure:
as §1

The target is the same in assay [3]. Nature of the assay: ELISA, hDLL4 coated 0.5 ng/ul, Fab 3.13 nM. The procedure:
as §1

Assay [4] has the same target. Nature of the assay: ELISA, hDLL4 coated 0.5 ng/ul, Fab 6.25 nM. As to the method:
as §1

For assay [5] the target is unchanged. Nature of the assay: ELISA, hDLL4 coated 0.5 ng/ul, Fab 12.50 nM. The procedure: as §1
Assay [6] shares this target. Nature of the assay: ELISA, hDLL4 coated 0.5 ng/ul, Fab 25.00 nM. As to the method:
as §1

Assay [7] shares this target. Nature of the assay: ELISA, hDLL4 coated 0.5 ng/ul, Fab 50.00 nM. The procedure:
as §1

For assay [8] the target is unchanged. Nature of the assay: ELISA, hDLL4 coated 0.5 ng/ul, Fab 100.00 nM. The procedure:
as §1

For assay [9] the target is unchanged. Nature of the assay: ELISA, hDLL4 coated 0.5 ng/ul, Fab 0.08 nM. As to the method:
as §1

For assay [10] the target is unchanged. Nature of the assay: ELISA, hDLL4 coated 0.5 ng/ul, Fab 0.16 nM. The procedure:
(§2) In this example, an ELISA binding assay was used to assess the dose-dependent binding of Fab antibodies to recombinant human DLL4 and recombinant mouse DLL4.
as §1

The target is the same in assay [11]. Nature of the assay: ELISA, hDLL4 coated 0.5 ng/ul, Fab 0.31 nM. The procedure: as §2, §1
Assay [12] has the same target. Nature of the assay: ELISA, hDLL4 coated 0.5 ng/ul, Fab 0.63 nM. The procedure:
as §1

Assay [13] shares this target. Nature of the assay: ELISA, hDLL4 coated 0.5 ng/ul, Fab 1.25 nM. The procedure: as §2, §1
The target is the same in assay [14]. Nature of the assay: ELISA, hDLL4 coated 0.5 ng/ul, Fab 2.50 nM. The procedure: as §2, §1
For assay [15] the target is unchanged. Nature of the assay: ELISA, hDLL4 coated 0.5 ng/ul, Fab 5.00 nM. The procedure: as §2, §1
The target in assay [16] is T2, recombinant mouse DLL4 (Cat# 1389-D4-050/CF, R&D Systems) (mouse, UniProt Q9JI71 28-525).
T2 construct: Bought protein; also called mDLL4
T2 sequence (Q9JI71 28-525 limits assumed): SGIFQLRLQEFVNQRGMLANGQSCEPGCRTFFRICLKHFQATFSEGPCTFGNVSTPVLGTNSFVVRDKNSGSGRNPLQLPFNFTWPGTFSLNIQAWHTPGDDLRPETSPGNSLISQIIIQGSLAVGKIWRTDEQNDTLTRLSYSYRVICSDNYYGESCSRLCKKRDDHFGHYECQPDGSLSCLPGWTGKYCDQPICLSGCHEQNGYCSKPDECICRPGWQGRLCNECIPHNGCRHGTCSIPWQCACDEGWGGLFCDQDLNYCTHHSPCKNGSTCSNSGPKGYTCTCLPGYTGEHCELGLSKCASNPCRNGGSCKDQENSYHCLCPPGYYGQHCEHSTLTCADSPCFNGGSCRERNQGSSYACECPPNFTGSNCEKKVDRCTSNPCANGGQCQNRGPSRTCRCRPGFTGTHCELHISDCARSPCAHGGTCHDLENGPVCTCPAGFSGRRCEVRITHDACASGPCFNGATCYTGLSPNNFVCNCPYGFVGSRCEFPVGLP
Nature of the assay: ELISA, mDLL4 coated 0.5 ng/ul, Fab 0.08 nM. The procedure: as §1

Assay [17] deals with T2, recombinant mouse DLL4 (Cat# …). Nature of the assay: ELISA, mDLL4 coated 0.5 ng/ul, Fab 0.16 nM. The procedure: as §1
Assay [18] shares this target. Nature of the assay: ELISA, mDLL4 coated 0.5 ng/ul, Fab 0.31 nM. The procedure:
as §1

For assay [19] the target is unchanged. Nature of the assay: ELISA, mDLL4 coated 0.5 ng/ul, Fab 0.63 nM. As to the method:
as §1

For assay [20] the target is unchanged. Nature of the assay: ELISA, mDLL4 coated 0.5 ng/ul, Fab 1.25 nM. As to the method: as §2, §1
Assay [21] has the same target. Nature of the assay: ELISA, mDLL4 coated 0.5 ng/ul, Fab 2.50 nM. The procedure: as §2, §1
For assay [22] the target is unchanged. Nature of the assay: ELISA, mDLL4 coated 0.5 ng/ul, Fab 5.00 nM. The procedure: as §2, §1
Assay [23] deals with T1, recombinant human DLL4 (Cat# …). Nature of the assay: ELISA, hDLL4 coated 0.5 ng/ul, Fab 10.00 nM. The procedure: as §2, §1
Assay [24] addresses T2, recombinant mouse DLL4 (Cat# …). Nature of the assay: ELISA, mDLL4 coated 0.5 ng/ul, Fab 10.00 nM. The procedure:
as §1

B1: Fab VH5-51_IGHD5-18*01>3_IGHJ4*01 G100K/G104T G24T/S28R/G35V (H:KT TRV) & V3-4_IGLJ1*01 M94R/S96M (L:RM) (Fab, V domains shown)
VH: EVQLVQSGAEVKKPGESLKISCKTSGYRFTSYWIVWVRQMPGKGLEWMGIIYPGDSDTRYSPSFQGQVTISADKSISTAYLQWSSLKASDTAMYYCARRKYSYTYDYFDYWGQGTLVTVSS
VL: QTVVTQEPSFSVSPGGTVTLTCGLSSGSVSTSYYPSWYQQTPGQAPRTLIYSTNTRSSGVPDRFSGSILGNKAALTITGAQADDESDYYCVLYRGMGISYVFGTGTKVTVL
notes: Tested as Fab from E. coli (Plasmid A: CH1, His6, Flag; Plasmid E: CL lambda); also called H:KT TRV & L:RM; KT TRV / RM
Consider B1, for which the “ELISA absorbance at 450 nm” value in assay [1] turned out to be 0.145 A450; in assay [2] it was 0.148 A450; in assay [3] it was 0.167 A450; in assay [4], 0.229 A450; in [5] it was 0.294 A450; in assay [6] it was 0.421 A450. In addition, the “ELISA absorbance at 450 nm” value in [7] turned out to be 0.661 A450; in assay [8], 1.07 A450.

B2: Fab VH5-51_IGHD5-18*01>3_IGHJ4*01 G100K/G104T S28R (H:KT S28R) & V3-4_IGLJ1*01 (Fab, V domains shown)
VH: EVQLVQSGAEVKKPGESLKISCKGSGYRFTSYWIGWVRQMPGKGLEWMGIIYPGDSDTRYSPSFQGQVTISADKSISTAYLQWSSLKASDTAMYYCARRKYSYTYDYFDYWGQGTLVTVSS
VL: QTVVTQEPSFSVSPGGTVTLTCGLSSGSVSTSYYPSWYQQTPGQAPRTLIYSTNTRSSGVPDRFSGSILGNKAALTITGAQADDESDYYCVLYMGSGISYVFGTGTKVTVL
notes: Tested as Fab from E. coli (Plasmid A: CH1, His6, Flag); Plasmid E: CL lambda; also called H:KT S28R & L:wt
As for B2, the “ELISA absorbance at 450 nm” value in assay [1] turned out to be 0.138 A450; in [2], 0.148 A450; in assay [3], 0.164 A450; in assay [4] it was 0.203 A450; in assay [5] it was 0.226 A450; in [6], 0.333 A450. The “ELISA absorbance at 450 nm” value in assay [7] is 0.524 A450; in assay [8] it was 0.67 A450.

B3: Fab VH1-46_IGHD6-6*01_IGHJ1*01 S102A/S103P/S104F/H111F I51V/N52L/S54T/G56H (H:APFF VLTH) & L6_IGKJ1*01 S28N/S30D/S31H (L:NDH) (Fab, V domains shown)
VH: QVQLVQSGAEVKKPGASVKVSCKASGYTFTSYYMHWVRQAPGQGLEWMGIVLPTGHSTSYAQKFQGRVTMTRDTSTSTVYMELSSLRSEDTAVYYCAREEYAPFSAEYFQFWGQGTLVTVSS
VL: EIVLTQSPATLSLSPGERATLSCRASQNVDHYLAWYQQKPGQAPRLLIYDASNRATGIPARFSGSGSGTDFTLTISSLEPEDFAVYYCQQRSNWPPWTFGQGTKVEIKR
notes: Tested as Fab from E. coli (Plasmid A: CH1, His6, Flag; Plasmid C: CL kappa); also called H:APFF VLTH & L:NDH; APFF VLTH / NDH
As to B3, the “ELISA absorbance at 450 nm” value came to 0.189 A450 in assay [9]; 0.407 A450 in [10]; 0.683 A450 in assay [11]; 1.09 A450 in assay [12]; 1.4 A450 in [13]; 1.83 A450 in [14]. For the same molecule, the “ELISA absorbance at 450 nm” value was found to be 1.92 A450 in [15]; 0.063 A450 in assay [16]; 0.081 A450 in assay [17]; 0.105 A450 in [18]; 0.206 A450 in [19]; 0.317 A450 in assay [20]. Further, the “ELISA absorbance at 450 nm” value amounted to 0.583 A450 in [21], 0.833 A450 in [22], 2.25 A450 in assay [23] and 1.22 A450 in assay [24].

B4: Fab VH1-46_IGHD6-6*01_IGHJ1*01 S102A/S103P/S104F/H111F G56H (H:APFF G56H) & L6_IGKJ1*01 (Fab, V domains shown)
VH: QVQLVQSGAEVKKPGASVKVSCKASGYTFTSYYMHWVRQAPGQGLEWMGIINPSGHSTSYAQKFQGRVTMTRDTSTSTVYMELSSLRSEDTAVYYCAREEYAPFSAEYFQFWGQGTLVTVSS
VL: not shown
notes: Tested as Fab from E. coli: VH cloned into Plasmid A (CH1, His6 and Flag tags), kappa VL into Plasmid C (CL kappa); also called H:APFF G56H & L:wt
Consider B4, for which the “ELISA absorbance at 450 nm” value in assay [9] worked out at 0.071 A450; in assay [10], 0.079 A450; in [11], 0.103 A450; in assay [12] it was 0.168 A450; in assay [13], 0.264 A450; in [14], 0.535 A450. Besides, the “ELISA absorbance at 450 nm” value in [15] came out at 0.882 A450; in [16] it was 0.048 A450; in assay [17], 0.048 A450; in assay [18] it was 0.049 A450; in assay [19], 0.052 A450; in assay [20] it was 0.054 A450. The “ELISA absorbance at 450 nm” value in assay [21] is 0.061 A450; in [22], 0.07 A450; in [23], 1.2 A450; in [24], 0.088 A450.

The values above are taken from patent publication US20110318339A1 (FABRUS, published 2011).
